Biological target: T1, synthetic peptide substrate SEVNLDAEFR containing the APP Swedish mutation
T1 chain: SEVNLDAEFR

B1: Hu-Asp2 (human aspartyl protease 2), full-length, expressed from pcDNA3.1(+)Hygro/Hu-Asp2 (protein)
chain: TQHGIRLPLRSGLGGAPLGLRLPRETDEEPEEPGRRGSFVEMVDNLRGKSGQGYYVEMTVGSPPQTLNILVDTGSSNFAVGAAPHPFLHRYYQRQLSSTYRDLRKGVYVPYTQGKWEGELGTDLVSIPHGPNVTVRANIAAITESDKFFINGSNWEGILGLAYAEIARPDDSLEPFFDSLVKQTHVPNLFSLQLCGAGFPLNQSEVLASVGGSMIIGGIDHSLYTGSLWYTPIRREWYYEVIIVRVEINGQDLKMDCKEYNYDKSIVDSGTTNLRLPKKVFEAAVKSIKAASSTEKFPDGFWLGEQLVCWQAGTTPWNIFPVISLYLMGEVTNQSFRITILPQQYLRPVEDVATSQDDCYKFAISQSSTGTVMGAVIMEGFYVVFDRARKRIGFAVSACHVHDEFRTAAVEGPFVTLDMEDCGYNIPQTDESTLMTIAYVMAAICALFMLPLCLMVCQWRCLRCLRQQHDDFADDISLLK
B1 was tested, and the “hydrolysis of the synthetic peptide substrate, RP-HPLC with UV detection; products identified by Edman sequencing and MALDI-TOF” value was “the two product peaks which eluted before the intact peptide substrate, were confirmed to have the sequence DAEFR and SEVNL” and the “β-secretase activity of chromatography fractions (peptide substrate assay)” value was “Fractions containing both Hu-Asp2 immunoreactivity and β-secretase activity were combined”.

From patent US20050026256
